# Measured values as given in US20200277374A1 (Alector, published 2020).
# Tests used:
# T107A [1] = molecular target: T1, T107A (human, UniProt Q9Y286); test: flow cytometry on HEK-293T cells expressing the mutant, mock signal subtracted
# T1 construct: clone of the siglec-7 mutation library; also called Siglec-7 T107A
# Method: (§1) Shotgun mutagenesis epitope mapping of anti-siglec-7 antibodies was performed using an alanine-scanning library for the siglec-7 protein. […] Each of residues 19 to 353 was mutated, representing the siglec-7 extracellular domain, most to alanine, while alanine codons were mutated to serine. In total, 335 siglec-7 mutant expression constructs were generated, sequences confirmed, and arrayed into a 384-well plate, one mutant per well.
# Cells were then incubated with MAbs diluted in 10% o normal goat serum (NGS) (Sigma-Aldrich, St. Louis, Mo.). Prior to library screening, primary MAb concentrations were determined using an independent immunofluorescence titration curve against cells expressing wild-type siglec-7 to ensure that signals were within the linear range of detection. MAbs were detected using 3.75 μg/ml AlexaFluor488-conjugated secondary antibody (Jackson immunoResearch Laboratories, Westgrove, Pa.) in 10% NGS. […] Mean cellular fluorescence was detected using the Intellicyt high throughput flow cytometer (HTFC, Intellicyt, Albuquerque, N. Mex.). MAb reactivities against each mutant clone were calculated relative to wild-type siglec-7 protein reactivity by subtracting the signal from mock-transfected controls, and normalizing to the signal from wild-type siglec-7-transfected controls.
# R45A = molecular target: T2, R45A (human, UniProt Q9Y286); test: flow cytometry on HEK-293T cells expressing the mutant; mean % of wild-type signal (range of duplicates)
# T2 construct: clone of the siglec-7 mutation library; also called Siglec-7 R45A
# T2 sequence (Q9Y286 19-467 R45A limits assumed): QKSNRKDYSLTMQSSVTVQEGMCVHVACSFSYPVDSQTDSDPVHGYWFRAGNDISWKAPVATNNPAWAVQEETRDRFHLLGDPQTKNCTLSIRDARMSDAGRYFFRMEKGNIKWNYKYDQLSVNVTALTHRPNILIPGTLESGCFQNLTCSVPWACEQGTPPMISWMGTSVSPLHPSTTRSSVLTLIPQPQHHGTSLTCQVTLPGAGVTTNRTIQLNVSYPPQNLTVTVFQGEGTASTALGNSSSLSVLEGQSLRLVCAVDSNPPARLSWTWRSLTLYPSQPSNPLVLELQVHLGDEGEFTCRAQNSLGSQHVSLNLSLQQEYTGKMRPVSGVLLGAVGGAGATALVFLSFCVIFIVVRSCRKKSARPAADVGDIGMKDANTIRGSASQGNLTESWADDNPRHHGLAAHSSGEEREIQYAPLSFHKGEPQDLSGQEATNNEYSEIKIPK
# Method: as §1
# (§2) Cells were then incubated with MAbs diluted in 10% o normal goat serum (NGS) (Sigma-Aldrich, St. Louis, Mo.). Prior to library screening, primary MAb concentrations were determined using an independent immunofluorescence titration curve against cells expressing wild-type siglec-7 to ensure that signals were within the linear range of detection. MAbs were detected using 3.75 μg/ml AlexaFluor488-conjugated secondary antibody (Jackson immunoResearch Laboratories, Westgrove, Pa.) in 10% NGS. Cells were washed twice with PBS−/− and resuspended in Cellstripper (Cellgro, Manassas, Va.) with 0.1% BSA (Sigma-Aldrich, St. Louis, Mo.). Mean cellular fluorescence was detected using the Intellicyt high throughput flow cytometer (HTFC, Intellicyt, Albuquerque, N. Mex.). MAb reactivities against each mutant clone were calculated relative to wild-type siglec-7 protein reactivity by subtracting the signal from mock-transfected controls, and normalizing to the signal from wild-type siglec-7-transfected controls.
# I72A = molecular target: T3, I72A (human, UniProt Q9Y286); test: as above
# T3 construct: clone of the siglec-7 mutation library; also called Siglec-7 I72A
# T3 sequence (Q9Y286 19-467 I72A limits assumed): as the sequence (Q9Y286 19-467 R45A limits assumed) above, with A27R, I54A counted along it
# Method: as §1, §2
# R124A = molecular target: T4, R124A (human, UniProt Q9Y286); test: as above
# T4 construct: clone of the siglec-7 mutation library; also called Siglec-7 R124A
# T4 sequence (Q9Y286 19-467 R124A limits assumed): as the sequence (Q9Y286 19-467 R45A limits assumed) above, with A27R, R106A counted along it
# Method: as §1, §2
# N81A = molecular target: T5, N81A (human, UniProt Q9Y286); test: as above
# T5 construct: clone of the siglec-7 mutation library; also called Siglec-7 N81A
# T5 sequence (Q9Y286 19-467 N81A limits assumed): as the sequence (Q9Y286 19-467 R45A limits assumed) above, with A27R, N63A counted along it
# Method: as §1, §2
# Q31A = molecular target: T6, Q31A (human, UniProt Q9Y286); test: as above
# T6 construct: clone of the siglec-7 mutation library; also called Siglec-7 Q31A
# T6 sequence (Q9Y286 19-467 Q31A limits assumed): as the sequence (Q9Y286 19-467 R45A limits assumed) above, with Q13A, A27R counted along it
# Method: as §1, §2
# W74A = molecular target: T7, W74A (human, UniProt Q9Y286); test: as above
# T7 construct: clone of the siglec-7 mutation library; also called Siglec-7 W74A
# T7 sequence (Q9Y286 19-467 W74A limits assumed): as the sequence (Q9Y286 19-467 R45A limits assumed) above, with A27R, W56A counted along it
# Method: as §1, §2
# S47A = molecular target: T8, S47A (human, UniProt Q9Y286); test: as above
# T8 construct: clone of the siglec-7 mutation library; also called Siglec-7 S47A
# T8 sequence (Q9Y286 19-467 S47A limits assumed): as the sequence (Q9Y286 19-467 R45A limits assumed) above, with A27R, S29A counted along it
# Method: as §1, §2
# T107A [2] = molecular target: T1, T107A; test: as above
# Method: as §1, §2
# M30A (human) = M30A (human) (UniProt Q9Y286); test: as above
# Chain of M30A (human) (Q9Y286 19-467 M30A limits assumed): as the sequence (Q9Y286 19-467 R45A limits assumed) above, with M12A, A27R counted along it
# Y50A (human) = Y50A (human) (UniProt Q9Y286); test: as above
# Chain of Y50A (human) (Q9Y286 19-467 Y50A limits assumed): as the sequence (Q9Y286 19-467 R45A limits assumed) above, with A27R, Y32A counted along it
# T103A (human) = T103A (human) (UniProt Q9Y286); test: as above
# Chain of T103A (human) (Q9Y286 19-467 T103A limits assumed): as the sequence (Q9Y286 19-467 R45A limits assumed) above, with A27R, T85A counted along it
# F48A (human) = F48A (human) (UniProt Q9Y286); test: as above
# Chain of F48A (human) (Q9Y286 19-467 F48A limits assumed): as the sequence (Q9Y286 19-467 R45A limits assumed) above, with A27R, F30A counted along it
# V44A (human) = V44A (human) (UniProt Q9Y286); test: as above
# Chain of V44A (human) (Q9Y286 19-467 V44A limits assumed): as the sequence (Q9Y286 19-467 R45A limits assumed) above, with V26A, A27R counted along it
# [3] = molecular target: T9, human Siglec-7 expressed on human cells (primary monocytes, dendritic cells, macrophages, NK cells, … (human, UniProt Q9Y286 19-467)); test: cell-based or functional assay
# T9 sequence (Q9Y286 19-467): as the sequence (Q9Y286 19-467 R45A limits assumed) above, with A27R counted along it
# [4] = molecular target: T9, human Siglec-7 expressed on human cells …; test: FACS, human primary dendritic cells, 10 ug/ml mAb
# Method: (§3) Initial characterization of Siglec-7 antibodies involved determining their ability to bind Siglec-7 expressed on human primary monocytes, human primary macrophages, human primary dendritic cells, human primary neutrophils, and human primary natural killer (NK) cells. Cells were harvested, plated at 10⁶/ml in a 96 well plate, and incubated in 100 ul PBS containing 2% FBS, 2 mM EDTA and 10 μg/ml Mab and Fc blocking reagent for 1 hour in ice. Cells were washed twice and incubated in 100 ul PBS containing 2% FBS, 2 mM EDTA and 5 ug/ml PE-conjugated secondary antibody for 30 minutes on ice. Cells were washed twice in cold PBS and analyze by flow cytometry on a BD FACS Canto. Data analysis and calculation of MFI values was performed with FlowJo (TreeStar) software version 10.0.7.
# (§4) Percent positive binding and mean fluorescent intensity (MFI) values for cell types bound by Siglec-7 antibodies are listed in Table 4A. Binding is compared to an isotype control. The antibodies bind to human primary monocytes, human primary dendritic cells, and human primary macrophages. In Table 4A, “Buffer” refers to cells that were treated only with the PBS buffer described supra; “Secondary Ab” refers to cells that were treated only with the PE-conjugated secondary antibody; “mIgG1,” “mIgG2a,” and “mIgG2b” refer to isotype control antibodies; and “RDS7” refers to commerically available anti-Siglec-7 antibody Mab1138 (R&D Systems; Cat. No. MAB 1138).
# [5] = molecular target: T9, human Siglec-7 expressed on human cells …; test: FACS, human primary monocytes, 10 ug/ml mAb
# Method: as §3, §4
# [6] = molecular target: T9, human Siglec-7 expressed on human cells …; test: cell-based or functional assay; remark: listed apart in the source
# [7] = molecular target: T10, Histidine-tagged human Siglec-7 (NovoProtein) (human, UniProt Q9Y286 19-357, limits assumed); test: SPR (BiaCore T200, 25 C), antibody captured on anti-mouse IgG, Siglec-7-His 35 nM, single-concentration kinetics
# T10 construct: Bought protein; also called purified Siglec-7-his tagged protein; not shown: histidine tag
# T10 sequence (Q9Y286 19-357 limits assumed): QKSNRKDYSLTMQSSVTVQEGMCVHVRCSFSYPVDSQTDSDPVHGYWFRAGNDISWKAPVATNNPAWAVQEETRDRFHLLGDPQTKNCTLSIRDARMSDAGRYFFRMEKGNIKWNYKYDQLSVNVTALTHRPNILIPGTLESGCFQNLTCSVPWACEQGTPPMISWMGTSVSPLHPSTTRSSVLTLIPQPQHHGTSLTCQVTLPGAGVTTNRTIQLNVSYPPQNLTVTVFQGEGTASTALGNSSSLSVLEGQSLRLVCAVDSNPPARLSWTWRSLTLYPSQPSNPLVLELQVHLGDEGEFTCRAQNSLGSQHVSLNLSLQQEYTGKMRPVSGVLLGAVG
# Method: SPR data was collected at a rate of 10 Hz at 25′ C on a BiaCore T200 instrument. Data analysis was performed using BiaCore T200 Evaluation Software, version 2.0. HBS-EP+ (100 mM HEPES, 1.5 M NaCl, 30 mM EDTA, 0.5% v/v Surfactant P20, pH 7.4) was used as running buffer and for preparing reagents.
# Mouse-derived antibodies (25 nM) against Siglec-7 were captured (60 s contact time, 30 μL/min flow rate, 0 s stabilization time) on a CM5 sensor chip (GE Healthcare) immobilized with anti-mouse IgG. Histidine-tagged human Siglec-7 (NovoProtein) was then flowed over the captured anti-Siglec-7 surface (120 s contact time, 30 μL/min flow rate, 300 s dissociation time). Concentration of antigen ranged from 5 nM to 100 nM, depending on information obtained from an initial screen. Duplicate single-concentration trials were performed and bracketed by a blank (0 nM antigen) sample. The chip surface was regenerated in between cycles using 10 mM glycine-HCl, pH1.7 (60 s contact time, 30 μL/min flow rate, 60 s stabilization time). The resulting SPR signal was obtained as the difference in response from measurements performed on a blank flow cell.
# Affinity constants (KD) were calculated from the ratio kd/kₐ. For one antibody (clone 1E8), we validated the single-concentration analysis with a multiple-concentration approach (five concentrations of antigen used, plus one blank).
# [8] = molecular target: T11, Siglec-7-Fc (plate immobilized) (human, UniProt Q9Y286 19-357, limits assumed); test: RBC solid adhesion assay, plate-coated Siglec-7-Fc, antibody 0.5 or 1.0 ug/ml; % of RBC binding without antibody
# T11 construct: also called Siglec-7-Fc protein; immobilized Siglec-7; not shown: Fc part
# T11 sequence (Q9Y286 19-357 limits assumed): as above
# In short: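 Plates coated overnight at RT with 5 μg/ml Siglec-7-Fc and blocked in PBS with BSA and 1 mM CaCl₂. Antibody (0.5 or 1.0 μg/ml) bound 1 h at RT, then RBCs (3.0×10⁶ cells/ml) added for 1 h at RT. Bound RBCs lysed and detected by peroxidase at 450 nm, expressed as % of binding without antibody.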
# [9] = molecular target: T9, human Siglec-7 expressed on human cells …; test: FACS, human primary macrophages, 10 ug/ml mAb
# Method: as §3, §4
# T1 sequence (Q9Y286 19-467 T107A limits assumed): as the sequence (Q9Y286 19-467 R45A limits assumed) above, with A27R, T89A counted along it
binder,measurement,setting,value
"10B5 Fab (Fab, V domains shown) VH: QVHLQQSGPELVKPGASVKISCKASGYAFTNCWMNWVRQRPGKGLDWIGRIFPGNGHTNYSGKFKDKATLTEDKSSSTAYMQLSSLTSEDSAVYFCARDYSDYYFDYWGQGTTLTVSS VL: DVQMTQTTSSLSASLGDRVTISCRASQDINTYLNWYQQKPDGTVKLLIYYTSRLHSGVPSRFSGSGSGTDYSLTISNLEQEDIATYFCQQGNTLPWTFGGGTKLEIK",binding result,T107A [1],no binding
same,Binding Reactivity (% WT),R45A,1.6 % WT
same,Binding Reactivity (% WT),I72A,92.8 % WT
same,Binding Reactivity (% WT),R124A,81.1 % WT
same,Binding Reactivity (% WT),N81A,138 % WT
same,Binding Reactivity (% WT),Q31A,18.2 % WT
same,Binding Reactivity (% WT),W74A,79.8 % WT
same,Binding Reactivity (% WT),S47A,1.5 % WT
same,Binding Reactivity (% WT),T107A [2],0.4 % WT
same,Binding Reactivity (% WT),M30A (human),20.1 % WT
same,Binding Reactivity (% WT),Y50A (human),18.2 % WT
same,Binding Reactivity (% WT),T103A (human),6.3 % WT
same,Binding Reactivity (% WT),F48A (human),13.9 % WT
same,Binding Reactivity (% WT),V44A (human),13.3 % WT
"anti-Siglec-7 antibody 7F12 (antibody, V domains shown, Variable domains assembled from FR and CDR entries) VH: QVQLQQSGSELRSPGSSVKLSCKDFDSEVFPITYMNWVRQKPGHGFEWIGDILPSIGRTMYGEKFEDKATLDADTVSNTAYLELNSLTSEDSAIYYCARSEGYLLAYWGQGTLVTVSA VL: DVLMTQTPLSLPVSLGDQASISCRSSQSLVHSTGNTYLHWYLQKPGQSPKLLIYKVSNRFSGVPDRFSGSGAGTDFTLKISRVEAEDLGVYFCSQNTHVPYTFGGGTKLEIK","Percent Siglec-7 Surface Expression, Macrophages",[3],13.1%
same,"Percent Siglec-7 Surface Expression, Microglia",[3],28.1%
same,"Percent Siglec-7 Surface Expression, NK cells",[3],124%
same,% Positive,[4],99.7%
same,MFI,[4],5000
same,% Positive,[5],99.3%
same,MFI,[5],472
same,"Percent Siglec-7 Surface Expression, DCs",[6],96.9%
same,"Percent Siglec-7 Surface Expression, Monocytes",[6],39%
same,"Percent Siglec-7 Surface Expression, U937 cells",[6],86.3%
same,Kd,[7],400 pM
same,Percent RBC Binding to Siglec-7,[8],7.9%
same,% Positive,[9],99.3%
same,MFI,[9],12300
